In patent US20240369578A1 (NEURO BIO, published 2024):

Molecular target: T1, alpha-7 nicotinic receptor (human, UniProt P36544 23-502)
T1 construct: Endogenous receptor in human brain homogenate, captured by biotinylated BTX on SA-donor beads in the AlphaLISA; also called alpha-7 receptor
Assay: AlphaLISA of T14-alpha-7 complex in human hippocampal tissue lysate (biotinylated BTX on SA-donor beads, anti-T14 on acceptor beads)
Method: Samples were extracted from homogenized human brain tissue using PerkinElmer lysis buffer and the protein concentration determined using the BCA method. For 100 mg tissue homogenization, 1 mL of lysis buffer was used. Five cycles of 40 second pulse, and 10 second breaks, on a shielded homogenizer were used for each sample. Samples were centrifuged at […], 15000 rpm (15 minutes) for supernatants; these were diluted in PerkinElmer Assay buffer and used to measure T14-alpha-7 nicotinic receptor complexes in the presence of NBP14 (concentrations 0.065 μM-900 μM) with AlphaLISA following the manufacturer's protocol. The antibodies were biotinylated BTX on SA-donor beads and anti-rabbit T14 on acceptor beads; results read in an AlphaLISA Reader.

T1 sequence (P36544 23-502 limits assumed): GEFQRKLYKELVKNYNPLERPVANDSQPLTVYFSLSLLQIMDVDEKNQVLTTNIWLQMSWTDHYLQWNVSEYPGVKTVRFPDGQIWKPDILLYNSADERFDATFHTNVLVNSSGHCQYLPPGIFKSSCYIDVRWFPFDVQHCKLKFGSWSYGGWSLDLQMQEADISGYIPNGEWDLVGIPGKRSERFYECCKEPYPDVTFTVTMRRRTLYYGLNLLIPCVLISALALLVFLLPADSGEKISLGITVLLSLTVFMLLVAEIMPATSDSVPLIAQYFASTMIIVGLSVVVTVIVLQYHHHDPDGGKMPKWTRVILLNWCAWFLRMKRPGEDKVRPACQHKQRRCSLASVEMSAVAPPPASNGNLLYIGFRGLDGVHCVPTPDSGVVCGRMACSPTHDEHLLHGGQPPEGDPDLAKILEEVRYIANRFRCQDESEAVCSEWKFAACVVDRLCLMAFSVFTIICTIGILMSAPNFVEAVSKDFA

B1: T14 peptide (AChE-derived peptide, SEQ ID No:3) (peptide)
peptide: AEFHRWSSYMVHWK
notes: In the assays this was endogenous T14 in human brain tissue, CSF or plasma; Synthetic T14 served as the positive control and standard
B1: binds.
